The nature of the series: label from the status in PepcDB records.
Consider “MLINKTKRAEQNLNNLPFLALQAEQIEFLGSSAEFKTQIIELIRNAKKRIYVTALYWQKDEAGQEILDEIYRVKQENPHLDVKVLIDWHRAQRNLLGAEKSATNADWYCEQRQTYQLPDDPNMFFGVPINTREVFGVLHVKGFVFDDTVLYSGASINNVYLHQFEKYRYDRYQKITHAELADSMVNFINDYLLDFSAVYPLDVTNRPRTKEIRGNIRAYRKDLAQNGEYSLKSAVKLPNVLSVSPLFGLGASGNELNQVIEDLFLQVQKKLVICTPYFNFPRTLQHKIATLLENGKRVEIIVGDKVANDFYIPPEQPFKMAGALPYLYESNLRRFCEKFETQIESGQLVVRLWRDGDNTYHLKGVWVDDRYILLTGNNLNPRAWRLDAENGLLIYDPQQQLLAQVEKEQNQIRQHTKVLKHYTELEELNQYPEPVQKLLKKFARIKADKLVKMIL”, for which the protein production result was “not failed”. With “MLIPSKLHFPRRLHNAILRQRVLDTLENAMHYKLVLFRSPAGYGKTTMAAQWLSDKDATGWYSLDESDNDEYKFAKYFVQTISNATHTELSHSKALTEKRQFASLSSLFSQVFTELISFQDEAYIVLDDYHLITNDTIHLGLKFFLKHLPDNLTLVITSRSQPPLNTANLRVRDLLIEIDNQSLAFDQSETSLFFNQRLNENIDQEAITHVREHVEGWPSALQLIALHSIQNNQSLNNSAQVMAQLNHAHLWDYLAEEVFDHLDQETQQFLMRCAVFDHFNTTLLSKVTQRKDAQLLIENLNRFGLFINTNGEQGDWYKFHNLFAEFLTHQRQNHLAHEEIDLQKYAAEAWLEHDNIYQALRHAKNAKDDILIANILTQHGWHLFNNGELSLLETTISDLRPEVLFTSPRLVIIRAWLAQSQHNYLQVNDLLSEAQREMADRNIVLDRHMQGEIDALRAQVAINKNEPEAALAFAEKALEELETNKYRSRIVATSVIGEYHHVSGNLAQALALMQQTEKMAMTYGIYHQALWAILQQSEILMAQGFMQAAFDLQDNGFKLIEDQDLHQLPLHEFLLRSRAQIYWFWFRFDEAEQCTWKGLDVLSPFDETKHLRGYSMLARLAVARGELDKAERYLDKCQQLLGQSDYHIDWKANASSAQLFYWQAKNNSEAIQYWLAQAERPETRCNHFTQLQWRNIARAQFHLGDIDTAIETLQTSQTIAQQHKLITDINRNAILAAILLYENKQIDEAVEAMHLAIKQSNQTGIIGSFLMAGRNVLKPLGKLQQKGNVTELEKHRIEQLQKALSNNERSRSAHFDETFIEKVLNTPEVPELIRTSPLTHREWQVLGLIYSGFSNEQIAAEFDVAPTTIKTHIRNLYQKLNLPNRKAAIAMADELVGMMK”, the protein production entry is reported as “failed”. With “MLIRPTLEPDITWLPDVERSAAQAFVSWPALAWLAQGDVMDCAAHRAFVEAGGSWVAQDATGRIVGFACARLADQALHLHEISVRQEAQGQGVGRRLLQQVVDAGRCAGVRELTLTTFVDVPWNAPFYARFGFEMLQESRLCERLRGILASEHAHGLLGRCAMRLNVGL”, the protein production entry was “failed”. For the sequence “MLIVIGYAVVILAVVGSFIGLGGHLGALYQPFELTLIAGAAVGAFMAGNSRKSLGLVAKAIPEAFRSSPYSKDVYMELMALLYVLLNKARREGLMAIESHIEDPLSSPIFNEYPRIMKDAKLMEFITDYLRIMISGNMSSFEIETLMDEEIETYRHEREVPTHALQQVADALPAFGIVAAVLGVIKALAAVDQPPAILGDLISKAMVGTFLGVLLAYGFVAPMAARIERRTSESVKVLECIKVTLLASMNGYPPQLAVEFGRKVLFSAVRPSFGELEEHVRQAKSAATGRA”, the protein production result is recorded as “failed”. For “MLIWWRGKFRRADEISLDFSLFEKSLQGAVYETLRTYSRAPFAAYKHYTRLKRSADFFNLPLSLSFDEFTKVLKAGADEFKQEVRIKVYLFPDSGEVLFVFSPLNIPDLETGVEVKISNVRRIPDLSTPPALKITGRTDIVLARREIVDCYDVILLGLNGQVCEGSFSNVFLVKEGKLITPSLDSGILDGITRENVIKLAKSLEIPVEERVVWVWELFEADEMFLTHTSAGVVPVRRLNEHSFFEEEPGPVTATLMENFEPFVLNLEENWVGI”, the protein production result is recorded as “not failed”. Next, “MLIYGLARLLLFVVLTLIIHSLALLISAPVPLVMSAMLALIVAFPLSMLVFSKLRMNATQAVSQWDAQRKAHKEWVRSELADR”: “failed”; “MLKEILSSALLMLIMIDPSDKILLVSLLREDFHIEDVKSLIIRANLIGFILLLLFAVAGKIILQDIFHIELDALRVAGGFVLFKIGLEALEGGGMVTIKREKNILALAAVPVATPLIAGPAAITAAITLTAEHGIIVSIVGTLIAIAITAALMMIALYLMRGISKTALSVTIRIIGLFIMAIGAQMMITGAGGIVLNLIKGA”: “failed”.

For the origin of these results see a protein production outcome set (Wang et al. 2014).
